Drawing on article PMC7857403, this text covers other and Kd for two substances.

Assay [1] deals with SARS-CoV-2 spike receptor binding domain (SARS-CoV-2) (UniProt P0DTC2).
Assay [2] shares this target. The assay can be described thus: BLI. (In general: In BLI a coated tip is dipped into the sample, and binding shifts an interference pattern.)

Regarding LCB1 (designed binder), in assay [1], the other worked out at 23.5 pM. For the same substance, the Kd (in general, a measure of binding affinity in units of concentration) in assay [2] is less than 1 nM. Take LCB3 (designed binder): the Kd in assay [2] was less than 1 nM.
